Experimental data: patent US20260167959A1, “APTAZYME-BASED REGULATABLE GENE EXPRESSION SYSTEMS” (REJUVENATE BIO INC, priority 2022, published 2026)

B1: RA319 (nucleic acid)
DNA: GCGCGTCCTGGATTCGCGGAAACGCGTACAGAGAATACCAGCATCGTCTTGATGCCCTTGGAAGTCTCTCCAGCTGACGAGTCCCAAATAGGACGAAACGCGC
modifications: expressed or natural sequence
B2: RA316 (nucleic acid)
DNA: GCGCGTCCTGGATGGAATACCAGCATCGTCTTGATGCCCTTGGAAGTCCTCGCGGAAACGCGTACATCCAGCTGACGAGTCCCAAATAGGACAAAACGCGC
modifications: expressed or natural sequence
B3: RA306 (nucleic acid)
DNA: GCGCGGGAATACCAGCATCGTCTTGATGCCCTTGGAAGTCCTCCTGGATTCGCGGAAACGCGTACATCCAGCTGACGAGTCCCAAATAGGACAAAACGCGC
modifications: expressed or natural sequence
B4: RA309 (nucleic acid)
DNA: GCGCGAGAATACCAGCATCGTCTTGATGCCCTTGGAAGTCTTCCTGGATTCGCGGAAACGCGTACATCCAGCTGACGAGTCCCAAATAGGACGAAACGCGC
modifications: expressed or natural sequence
B5: RA311 (nucleic acid)
DNA: GCGCGTCCTGGATTCGCGGAAACGCGTCGAGAATACCAGCATCGTCTTGATGCCCTTGGAAGTCTCGACATCCAGCTGACGAGTCCCAAATAGGACGAAACGCGC
modifications: expressed or natural sequence
B6: RA308 (nucleic acid)
DNA: GCGCGTCCTGGATTCGCGGAAACGCGTACATCCAGCAGTGATACCAGCATCGTCTTGATGCCCTTGGCAGCACTTGACGAGTCCCAAATAGGACGAAACGCGC
modifications: expressed or natural sequence
B7: RA321 (nucleic acid)
DNA: GCGCGTCCTGGATTCGCGGAAACGCGTACATCCAGCTAGTGATACCAGCATCGTCTTGATGCCCTTGGCAGCACTGACGAGTCCCAAATAGGACGAAACGCGC
modifications: expressed or natural sequence
B8: RA314 (nucleic acid)
DNA: GCGCGTCCTGGATTCGCGGAAACGCGTACATCCAGCTGACGAGTCCCAAATAGGGAATACCAGCATCGTCTTGATGCCCTTGGAAGTCCGACGAAACGCGC
modifications: expressed or natural sequence
B9: RA303 (nucleic acid)
DNA: GCGCCGGAATACCAGCATCGTCTTGATGCCCTTGGAAGTCCGGTCCTGGATTCGCGGAAACGCGTACATCCAGCTGACGAGTCCCAAATAGGACGAAACGCGC
modifications: expressed or natural sequence
B10: RA302 (nucleic acid)
DNA: GCGCGTCCTGGATTCGCGGAAACGCGTACATCCAGCTGACGAGAATACCAGCATCGTCTTGATGCCCTTGGAAGTCTAGTCCCAAATAGGACGAAACGCGC
modifications: expressed or natural sequence
B11: RA313 (nucleic acid)
DNA: GCGCGTCCTGGATTCGCGGAAACGCGTACATCCAGCTGACGAGTCCCAACGGAATACCAGCATCGTCTTGATGCCCTTGGAAGTCCGATAGGACGAAACGCGC
modifications: expressed or natural sequence
B12: RA310 (nucleic acid)
DNA: GCGCGTCCTGGATTCGCGGAAACGCGTACATCCAGCTGACGAGTCCCAAATAGAATACCAGCATCGTCTTGATGCCCTTGGAAGTCTAGGACGAAACGCGC
modifications: expressed or natural sequence
B13: RA305 (nucleic acid)
DNA: GCGCGTCCTGGATTCGCGGAAACGCGTACATCAGTGATACCAGCATCGTCTTGATGCCCTTGGCAGCACTCAGCTGACGAGTCCCAAATAGGACGAAACGCGC
modifications: expressed or natural sequence
B14: RA304 (nucleic acid)
DNA: GCGCGAGAATACCAGCATCGTCTTGATGCCCTTGGAAGTCTCGCGTCCTGGATTCGCGGAAACGCGTACATCCAGCTGACGAGTCCCAAATAGGACGAAACGCGC
modifications: expressed or natural sequence
B15: RA318 (nucleic acid)
DNA: GCGGAATACCAGCATCGTCTTGATGCCCTTGGAAGTCCGCGCGTCCTGGATTCGCGGAAACGCGTACATCCAGCTGACGAGTCCCAAATAGGACGAAACGCGC
modifications: expressed or natural sequence
B16: RA315 (nucleic acid)
DNA: GCGCGTCCTGGATTCGCGGAAACGCGTACATCCAGCTGACGAGTCCCAAATAGGACGAACGAGAATACCAGCATCGTCTTGATGCCCTTGGAAGTCTCGACGCGC
modifications: expressed or natural sequence
B17: RA312 (nucleic acid)
DNA: GCGCGTCCTGGATTCGCGGAAACGCGTACATCCAGCTGACGAGGAATACCAGCATCGTCTTGATGCCCTTGGAAGTCCGTCCCAAATAGGACGAAACGCGC
modifications: expressed or natural sequence
B18: RA322 (nucleic acid)
DNA: GCGCGTCCTGGATTCGCGGAGAATACCAGCATCGTCTTGATGCCCTTGGAAGTCTAAACGCGTACATCCAGCTGACGAGTCCCAAATAGGACGAAACGCGC
modifications: expressed or natural sequence
B19: RA317 (nucleic acid)
DNA: GCGCGTCCTGGATTCGCGGAAACGCGTACATCCAGCTGACGAGTCCCAAATAGCCGGAATACCAGCATCGTCTTGATGCCCTTGGAAGTCCGGGACGAAACGCGC
modifications: expressed or natural sequence
B20: RA307 (nucleic acid)
DNA: GCGCGTCCTGGATTCGCGGAAACGCGTACATCCAGCTGACGAGTGAGAATACCAGCATCGTCTTGATGCCCTTGGAAGTCTCCCCAAATAGGACGAAACGCGC
modifications: expressed or natural sequence
B21: RA320 (nucleic acid)
DNA: GCGCGTCCTGGATTCGCGGAAACGCGTACATCCAGCTGACGAGTAGTGATACCAGCATCGTCTTGATGCCCTTGGCAGCACTCCCAAATAGGACGAAACGCGC
modifications: expressed or natural sequence
B22: RA031 (nucleic acid)
DNA: GCGCGTCCGAGAATACCAGCATCGTCTTGATGCCCTTGGAAGTCTCTGGATTCGCGGAAACGCGTACATCCAGCTGACGAGTCCCAAATAGGACGAAACGCGC
modifications: expressed or natural sequence
B23: RA029 (nucleic acid)
DNA: GCGCGTCCTGGATTCGCGGAAACGGGAATACCAGCATCGTCTTGATGCCCTTGGAAGTCCCGTACATCCAGCTGACGAGTCCCAAATAGGACGAAACGCGC
modifications: expressed or natural sequence
B24: RA030 (nucleic acid)
DNA: GCGCGTCCTGGATTCGCGGAAACGCGTACATCCAGCTGACGAGTCCCAAATAGGACGAAACGAGAATACCAGCATCGTCTTGATGCCCTTGGAAGTCTCGCGC
modifications: expressed or natural sequence
B25: RA299 (nucleic acid)
DNA: GCGCGTAGTGATACCAGCATCGTCTTGATGCCCTTGGCAGCACTCCTGGATTCGCGGAAACGCGTACATCCAGCTGACGAGTCCCAAATAGGACGAAACGCGC
modifications: expressed or natural sequence
B26: RA300 (nucleic acid)
DNA: GCGCGTCCTGGCGAGAATACCAGCATCGTCTTGATGCCCTTGGAAGTCTCGATTCGCGGAAACGCGTACATCCAGCTGACGAGTCCCAAATAGGACGAAACGCGC
modifications: expressed or natural sequence
B27: RA301 (nucleic acid)
DNA: GCGAGTGATACCAGCATCGTCTTGATGCCCTTGGCAGCACTCGTCCTGGATTCGCGGAAACGCGTACATCCAGCTGACGAGTCCCAAATAGGACGAAACGCGC
modifications: expressed or natural sequence

system: Renilla luciferase RNA; test: Barcoded aptazyme variant library screen: un-cleaved Renilla luciferase RNA by barcode read counts, HEK293-T cells; assay type: cell-based; conditions: un-cleaved Renilla luciferase RNA by barcode read counts; with 1 mM theophylline (ON) over without theophylline (OFF); HEK293-T cells; triplicate
Excerpt: Based on the findings from Example 1, an aptazyme variant library was generated from the T3H48 ribozyme with one of seven variant theophylline aptamers inserted sequentially after each nucleotide of the DNA sequence encoding the T3H48 ribozyme sequence. […] The seven variant theophylline aptamers vary in their communication channels, which are the ribonucleotides of the aptamer that attach to the ribozyme sequence (see, Table 2).
The library was barcoded with unique sequences of nine nucleotides flanked by forward and reverse primer amplification sequences.
The aptazyme library was then PCR amplified and cloned into the psiCHECK™-2 dual luciferase vector in the 3′ UTR of the Renilla luciferase gene. […] The next day, the cells were isolated followed by DNA and RNA extraction using standard methods. The purified RNA was then converted to cDNA and the barcoded portion of the aptazyme library was PCR amplified. Similarly, the DNA was PCR amplified and all the samples were sequenced. All experimental conditions (with theophylline and without theophylline) were performed in triplicate. The read count for each barcode was determined with a custom build code and the data was normalized to identify the un-cleaved fractions of the Renilla luciferase RNA from cells that were cultured in the presence or absence of theophylline for each aptazyme, which was used to obtain the fold-change between ON- and OFF-states (FIG. 2).

B1 and B2 are the same in “Fold change in RNA expression between the ON state and the OFF state” value (“Fold change” for short): 0.9 for the first, 0.9 for the second.

B3 and B4 are the same in “Fold change” value: 1.0 for the first, 1.0 for the second.

B5 and B6 are the same in “Fold change” value: 1.0 for the first, 1.0 for the second.

Going from B7 to B8, the “Fold change” value rises from 0.9 to 1.0.

B9 and B10 are the same in “Fold change” value: 1.0 for the first, 1.0 for the second.

B11 and B12 are the same in “Fold change” value: 1.0 for the first, 1.0 for the second.

B13 and B14 are the same in “Fold change” value: 1.0 for the first, 1.0 for the second.

Going from B15 to B16, the “Fold change” value rises from 0.9 to 1.0.

First: B17
Second: B18
The “Fold change” value of the first is higher: 1.0 for the first, 0.9 for the second.

Compared with B19, B20 is higher in “Fold change” value: 0.9 for the first, 1.0 for the second.

For B21, the “Fold change” value was 0.9.

same assay, conditions: un-cleaved Renilla luciferase RNA, HEK293-T cells cultured with 1 mM theophylline (ON) over without theophylline (OFF); barcode read counts, triplicate

B22 and B23 are the same in “Fold change” value: 2.3 fold for the first, 2.3 fold for the second.

Compared with B24, B25 is lower in “Fold change” value: 2.3 fold for the first, 1.0 fold for the second.

B26 and B27 are the same in “Fold change” value: 1.0 fold for the first, 1.0 fold for the second.
